Positions count from the first letter of the chain named. Some results are limits rather than exact numbers.

To fix the notation:
B1: hPGT121.66 AAS + W/huSP34.25.8scFv AAS + SAV + R (bispecific antibody, human IgG1, lambda, L234A L235A)
chain: EVQLVESGGGLVQPGGSLRLSCAASGFTFSTYAMNWVRQAPGKGLEWVGRIRSKYNNYAAYYAASVKSRFTISRDDSKNTLYLQMNSLRTEDTAVYYCVRHGNFGHSYVSWFAYWGQGTLVTVSSGGGGSGGGGSGGGGSGGGGSQAVVTQEPSLTVSPGGTVTLTCGSSTGAVTTGHYANWVQQKPGQAPRGLIGGTNKRAPGVPARFSGSLLGGKAALTISGAQPEDEAEYYCALWYSNRWVFGGGTKLTVLEPKSSDKTHTCPPCPAPEAAGGPSVFLFPPKPKDTLMISRTPEVTCVVVDVSHEDPEVKFNWYVDGVEVHNAKTKPREEQYNSTYRVVSVLTVLHQDWLNGKEYKCKVSNKALPASIEKTISKAKGQPREPQVYTLPPSREEMTKNQVSLSCAVKGFYPSDIAVEWESNGQPENNYKTTPPVLDSDGSFFLVSKLTVDKSRWQQGNVFSCSVMHEALHNRYTQKSLSLSPGK
heavy: QMQLQESGPGLVKPSETLSLTCSVSGASISDSYWSWIRRSPGKGLEWIGYVHKSGDTNYNPSLKSRVHLSLDTSKNQVSLSLTGVTAADSGKYYCARTLHGRRIYGIVAFNEWFTYFYMDVWGTGTQVTVSSASTKGPSVFPLAPSSKSTSGGTAALGCLVKDYFPEPVTVSWNSGALTSGVHTFPAVLQSSGLYSLSSVVTVPSSSLGTQTYICNVNHKPSNTKVDKKVEPKSCDKTHTCPPCPAPEAAGGPSVFLFPPKPKDTLMISRTPEVTCVVVDVSHEDPEVKFNWYVDGVEVHNAKTKPREEQYNSTYRVVSVLTVLHQDWLNGKEYKCKVSNKALPASIEKTISKAKGQPREPQVYTLPPSREEMTKNQVSLWCLVKGFYPSDIAVEWESNGQPENNYKTTPPVLDSDGSFFLYSKLTVDKSRWQQGNVFSCSVMHEALHNHYTQKSLSLSPGK
light: not shown
B2: hPGT121.66 AAS + W/huSP34.27.8 scFv AAS + SAV + R (bispecific antibody, human IgG1, lambda, L234A L235A)
chain: B1 chain with R19S, A60E, S68G
heavy: B1 heavy
light: not shown
notes: also called 270; bispecific 270
B3: hPGT121.66 AAS + W/huSP34.28.8 scFv AAS + SAV + R (bispecific antibody, human IgG1, lambda, L234A L235A)
chain: B1 chain with R19S, A60T
heavy: B1 heavy
light: not shown
notes: also called 271; bispecific 271
B4: hPGT121.66 AAS + W/huSP34.26.8scFv AAS + SAV + R (bispecific antibody, human IgG1, lambda, L234A L235A)
chain: B1 chain with R19S, S68G
heavy: B1 heavy
light: not shown
B5: hPGT121.66 AAS + W/huSP34.33.8 scFv AAS + SAV + R (bispecific antibody, human IgG1, lambda, L234A L235A)
chain: B1 chain with A60T, Q84E
heavy: B1 heavy
light: not shown
B6: huSP34.2.4 Fab-HF (Fab, V domains shown)
VH: EVQLVESGGGLVQPGGSLRLSCAASGFTFSTYAMNWVRQAPGKGLEWVGRIRSKYNNYATYYAASVKGRFTISRDDSKNSLYLQMNSLKTEDTAMYYCVRHGNFGNSYVSWFAVWGQGTLVTVSS
VL: QAVVTQEPSLTVSPGGTVTLTCGSSTGAVTTSHYANWVQQKPGQAPRGLIGGTSKRAPWTPARFSGSLLGGKAALTLSGAQPEDEAEYYCALWYSALWVFGGGTKLTVL
B7: huSP34.5.6 Fab-HF (Fab, V domains shown)
VH: B6 VH with A64D, D76N, S80T, K89R, T90A, M95V, N106H
VL: B6 VL with E7P, S32G, K55N, W59G, T60V, L69S, L77I, L97R
B8: huSP34.5.5 Fab-HF (Fab, V domains shown)
VH: B6 VH with A64D, D76N, S80T, K89R, T90A, M95V, N106H
VL: B6 VL with S32G, K55N, L97R
B9: huSP34.5.4 Fab-HF (Fab, V domains shown)
VH: B6 VH with A64D, D76N, S80T, K89R, T90A, M95V, N106H
VL: B6 VL
B10: huSP34.5.2 Fab-HF (Fab, V domains shown)
VH: B6 VH with A64D, D76N, S80T, K89R, T90A, M95V, N106H
VL: B6 VL with H33N, K55N, A96N
B11: huSP34.4.4 Fab-HF (Fab, V domains shown)
VH: B6 VH with K89R, M95V, N106H
VL: B6 VL
B12: huSP34.5.1 Fab-HF (Fab, V domains shown)
VH: B6 VH with A64D, D76N, S80T, K89R, T90A, M95V, N106H
VL: B6 VL with G23R, H33N, S54N, L69I, G71D, A96N
B13: huSP34.4.5 Fab-HF (Fab, V domains shown)
VH: B6 VH with K89R, M95V, N106H
VL: B6 VL with S32G, K55N, L97R
B14: huSP34.2.5 Fab-HF (Fab, V domains shown)
VH: B6 VH
VL: B6 VL with S32G, K55N, L97R
B15: huSP34.11.9 Fab-HF (Fab, V domains shown)
VH: B6 VH with K89R, M95V, N106H, V114Y
VL: B6 VL with E7P, S32G, S54N, W59G, T60V, L69S, L77I, A96N
B16: huSP34.11.7 Fab-HF (Fab, V domains shown)
VH: B6 VH with K89R, M95V, N106H, V114Y
VL: B6 VL with G23R, S32G, S54N, W59G, T60V, L77I, A96N
B17: huSP34.3.9 Fab-HF (Fab, V domains shown)
VH: B6 VH with S30N, A64D, K89R, M95V, N106H, V114Y
VL: B6 VL with E7P, S32G, S54N, W59G, T60V, L69S, L77I, A96N
B18: huSP34.3.7 Fab-HF (Fab, V domains shown)
VH: B6 VH with S30N, A64D, K89R, M95V, N106H, V114Y
VL: B6 VL with G23R, S32G, S54N, W59G, T60V, L77I, A96N
B19: huSP34.3.10 Fab-HF (Fab, V domains shown)
VH: B6 VH with S30N, A64D, K89R, M95V, N106H, V114Y
VL: B6 VL with E7P, S32G, S54N, W59G, T60V, L69S, L77I, A96N, L97R
B20: huSP34.3.8 Fab-HF (Fab, V domains shown)
VH: B6 VH with S30N, A64D, K89R, M95V, N106H, V114Y
VL: B6 VL with S32G, S54N, W59G, T60V, L77I, A96N, L97R
B21: huSP34.11.8 Fab-HF (Fab, V domains shown)
VH: B6 VH with K89R, M95V, N106H, V114Y
VL: B6 VL with S32G, S54N, W59G, T60V, L77I, A96N, L97R

One assay addresses T1, biotinylated CD3 epsilon:delta heterodimer protein (Amsbio AMS.CDD-H52WO) (Homo sapiens (Human), UniProt P07766 23-126; P04234 22-105).
T1 construct: also called CD3 heterodimer
Description: BLI (Octet), CD3 on SA sensor, bispecific analyte.
Description: The CD3 binding kinetics of the purified huSP34 Fabs were determined using OctetRed384 (Pall ForteBio, CA) biolayer interferometry (BLI). […] Streptavidin (SA) coated biosensors tips (Pall ForteBio, CA) were used to capture biotinylated CD3 epsilon: delta heterodimer and typical immobilization levels captured on the SA sensors were 1 nm which approximately translates to 300 ng/ml of captured protein. For kinetic measurements biosensors were first pre-wetted with assay buffer for 10 minutes to remove protective sucrose coating followed by the recommended regeneration conditions for standardization of the biosensor surface for the experiment. In order to load the biosensors with antigen, 300 ng/ml of biotinylated CD3 epsilon: delta heterodimer protein (Amsbio AMS.CDD-H52WO) was immobilized on the SA sensor for 900 seconds. The CD3 loaded biosensors were then blocked with 20 ug/ml biocytin (sigma) for 200 seconds and then dipped into assay buffer containing wells for 200 seconds to remove any non-specific protein or unbound CD3 heterodimer.
CD3 loaded and biocytin blocked biosensors were then transferred into fresh assay buffer for 200 seconds to collect a baseline read. Kinetic measurements for anti-CD3 Fab and bispecific antibody binding were performed by dipping the CD3-coated biosensors into wells containing multiple concentrations of Fab or Ab (0-300 nM) for 100 seconds followed by a 300 second dissociation time by transferring the biosensors into assay buffer containing wells. The CD3 loaded sensors were then regenerated for the next kinetic measurement. Biosensors were generated by removing bound Fabs or Ab from immobilized CD3 on SA biosensors. Regeneration conditions used consisted of 3 cycles of 5 seconds of dipping the biosensors in Regeneration Buffer (10 mM Glycine HCl pH 1.5) followed by Assay Buffer (10 mM sodium phosphate pH 7.4, 140 mM Sodium Chloride, 0.005% Tween20 with 0.2% BSA).
On to B1, for which the dissociation constant (Kd) worked out at 10.6 nM, the koff worked out at 0.000928 s⁻¹ and the on-rate constant (kon) stood at 87600 M⁻¹ s⁻¹.

Molecule B2 registered a Kd of 13.2 nM, a dissociation rate constant (koff) of 0.001 s⁻¹ and a kon of 76300 M⁻¹ s⁻¹.

B3 gave a dissociation constant Kd of 15.8 nM, an off-rate (koff) of 0.00134 s⁻¹ and an on-rate (kon) of 84600 M⁻¹ s⁻¹.

As for B4, the affinity, expressed as Kd, was 9.3 nM; the koff is 0.000504 s⁻¹; the kon turned out to be 55900 M⁻¹ s⁻¹.

B5 registered a Kd of 15.3 nM, an off-rate constant (koff) of 0.00118 s⁻¹ and a kon of 77400 M⁻¹ s⁻¹.

In another assay the target is T2, CD3 expressed on cell-surface of primary human T cells (human, UniProt P07766 23-207; P04234 22-171).
T2 construct: also called cell-surface CD3; human CD3
The experiment in a line: flow cytometry competition vs murine SP34-AF488 on human T cells, n = 1.
Description: (§1) Binding of humanized SP34 Fab variants to CD3 expressed on cell-surface of primary human T cells was evaluated in a flow cytometry-based competition assay.
Regarding B6, the IC50 was over 20 µg/mL.

On to B7, for which the 50% inhibitory concentration (IC50) is over 20 µg/mL.

B8 gave an IC50 of over 20 µg/mL.

The molecule B9 returned a concentration for half-maximal inhibition (IC50) of over 20 µg/mL.

The molecule B10 came in with a 50% inhibitory concentration (IC50) of over 20 µg/mL.

Take B11: the IC50 is over 20 µg/mL.

The molecule B12 yielded an IC50 of over 20 µg/mL.

Regarding B13, the concentration for half-maximal inhibition (IC50) is over 20 µg/mL.

B14 displayed an IC50 of over 20 µg/mL.

For a further assay, the target named is T2, CD3 expressed on cell-surface of …. Description: flow cytometry competition vs murine SP34-AF488 on human T cells, average.
Description: as §1
(§2) A second round of huSP34 Fab variants were characterized using the same flow cytometry-based competition assay as described above.
The molecule B15 returned a concentration for half-maximal inhibition (IC50) of 0.4 µg/mL.

With B16, the half-maximal inhibitory concentration (IC50) was determined as 0.32 µg/mL.

B17 yielded an IC50 of 0.28 µg/mL.

Regarding B18, the IC50 was 0.23 µg/mL.

Consider B19, for which the IC50 came out at 0.15 µg/mL. Compared with the last molecule, the IC50 is about 1.5-fold lower.

Turning to B20, the IC50 was 0.15 µg/mL.

Turning to B21, the IC50 was found to be 0.22 µg/mL.

The target is the same in another assay. Description: flow cytometry competition vs murine SP34-AF488 on human T cells, n = 1. The source holds these as a separate data set.
Description: as §1, §2
Regarding B15, the IC50 stood at 0.57 µg/mL.

Molecule B16 came in with an IC50 of 0.45 µg/mL.

As for B17, the IC50 was 0.39 µg/mL. This IC50 and that of the molecule before are within 1.5-fold of each other.

B18 gave a 50% inhibitory concentration (IC50) of 0.3 µg/mL.

As to B19, the IC50 worked out at 0.2 µg/mL.

Turning to B20, the IC50 came out at 0.2 µg/mL.

As for B21, the IC50 amounted to 0.3 µg/mL.

The target is the same in the next assay. Description: flow cytometry competition vs murine SP34-AF488 on human T cells, n = 2.
Description: as §1
For B6, the concentration for half-maximal inhibition (IC50) is over 20 µg/mL.

As to B7, the IC50 is over 20 µg/mL.

On to B8, for which the IC50 is over 20 µg/mL.

For the molecule B9, the IC50 is over 20 µg/mL.

Molecule B10 returned an IC50 of over 20 µg/mL.

The molecule B11 displayed an IC50 of over 20 µg/mL.

As for B12, the IC50 was over 20 µg/mL.

Regarding B13, the IC50 is over 20 µg/mL.

Turning to B14, the IC50 is over 20 µg/mL.

Another assay shares this target. Described as above. The source holds these as a separate data set.
Description: as §1, §2
The molecule B15 gave an IC50 of 0.22 µg/mL.

Take B16: the concentration for half-maximal inhibition (IC50) worked out at 0.18 µg/mL.

Molecule B17 displayed a 50% inhibitory concentration (IC50) of 0.17 µg/mL.

With B18, the half-maximal inhibitory concentration (IC50) came out at 0.15 µg/mL.

B19 had an IC50 of 0.09 µg/mL.

Take B20: the concentration for half-maximal inhibition (IC50) came out at 0.1 µg/mL. This IC50 and that of the molecule before are within 1.5-fold of each other.

B21 displayed a concentration for half-maximal inhibition (IC50) of 0.13 µg/mL.

The values above are taken from patent US20230056252A1 (Gilead, published 2023).
